Patent US20140348834A1 (published 2014)
Read-outs that look alike come from different tables or passages of the source.

Legend:
[1] = biological target: T1, human IL-17A (human, UniProt Q16552 24-155); assay: hIL17A ELISA
T1 construct: Recombinant; biotinylated in the ELISA; also called hIL-17; hIL17A
Method: The following protocol is used to characterize the binding of IL-17 antibodies to human IL-17 by enzyme-linked immunosorbent assay (ELISA). […] Coat ELISA plate with 50 μl per well of Goat anti Mouse IgG-Fc at 2 ug/ml, overnight at 4° C. […] Wash plate 3×PBS/Tween. […] Add 50 μl Mab diluted to 1 μg/ml in PBS/0.1% BSA to appropriate wells. Incubate 1 hr at room temperature (RT). […] Wash plate 3× with PBS/Tween. […] Add 50 μl of serial diluted biotin-IL17 (human IL-17, IL-17A/F, cyno IL-17) to appropriate wells. Incubate 1 hr at room temperature (RT). […] Wash plate 3× with PBS/Tween. […] Incubate 1 hr at RT. […] Wash plate 3× with PBS/Tween. […] Stop reaction with 50 μl 2N H₂SO₄. […] Read absorbance at 450 nm.

[2] = biological target: T1, human IL-17A; assay: cell-based or functional assay
[3] = biological target: cynomolgus monkey IL-17A (cynomolgus monkey, UniProt A0A2K5TTB0 24-155); assay: cell-based or functional assay
[4] = biological target: T1, human IL-17A; assay: cell-based or functional assay; remark: listed apart in the source

Sequence of cynomolgus monkey IL-17A (A0A2K5TTB0 entry or part of it): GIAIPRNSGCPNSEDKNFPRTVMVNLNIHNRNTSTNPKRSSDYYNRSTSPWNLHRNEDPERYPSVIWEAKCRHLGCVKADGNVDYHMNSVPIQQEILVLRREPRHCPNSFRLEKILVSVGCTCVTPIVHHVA
T1 sequence (Q16552 24-155): as the sequence (A0A2K5TTB0 entry or part of it) above, with A3T, S8P, S34N, V77I, K78N, R104P counted along it

| Binder | EC50 [1] [nM] | Potency (pM), IL-17-driven IL-6 production in HS27 cells [2] [pM] | Potency (pM), IL-17-driven IL-6 production in HS27 cells [3] [pM] | Potency (pM), IL-17-driven IL-6 production in HS27 cells [4] [pM] |
| --- | --- | --- | --- | --- |
| IL17-h10F7.13 (antibody, V domains shown, IgG; constant regions not specified) VH: EVQLVQSGAEVKKPGSSVKVSCKASGYTFTDYEIHWVRQAPGQGLEWIGVNDPESGGTFYNQKFDGRATLTADKSTSTAYMELSSLRSEDTAVYYCTRYYRYESFYGMDYWGQGTTVTVSS VL: QIVLTQSPSSLSASVGDRVTITCSASSSISYIYWFQQKPGKSPKRWIYATFELASGVPSRFSGSGSGTDYTLTISSLQPEDFATYYCHQRSSYPWTFGQGTKLEIKR | 0.1 | 242 | 429 | – |
| IL17-h10F7.15 (antibody, V domains shown, IgG; constant regions not specified) VH: EVQLVQSGAEVKKPGSSVKVSCKASGYTFTDYEIHWVRQAPGQGLEWIGVNDPESGGTFYNQKFDGRATLTADKSTSTAYMELSSLRSEDTAVYYCTRYYRYESFYGMDYWGQGTTVTVSS VL: EIVLTQSPSSLSASVGDRVTITCSASSSISYIYWFQQKPGKSPKRWIYATFELASGVPSRFSGSGSGTDYTLTISSLQPEDFATYYCHQRSSYPWTFGQGTKLEIKR | 0.14 | 309 | 499 | – |
| IL17-h10F7.17 (antibody, V domains shown, IgG; constant regions not specified) VH: EVQLVQSGAEVKKPGSSVKVSCKASGYTFTDYEIHWVRQAPGQGLEWIGVNDPESGGTFYNQKFDGRATLTADKSTSTAYMELSSLRSEDTAVYYCTRYYRYESFYGMDYWGQGTTVTVSS VL: QIVLTQSPDFQSVTPKEKVTITCSASSSISYIYWFQQKPDQSPKRWIYATFELASGVPSRFSGSGSGTDYTLTINSLEAEDAATYYCHQRSSYPWTFGQGTKLEIKR | 0.1 | 510 | 293 | – |
| m10F7hIgG1 (antibody, V domains shown) VH: QVQLQQSGAELVRPGTSVTLSCKASGYIFTDYEIHWVKQTPVHGLEWIGVNDPESGGTFYNQKFDGKAELTADKSSSTAYMELRSLTSEDSGVYYCTRYYRYESFYGMDYWGQGTSITVSS VL: QIVLTQSPAIMSASPGEKVTMTCSASSSISYIYWFQQKPGTSPKRWIYATFELASGVPARFSGSGSGTSYSLTISSMEAEDAATYYCHQRSSYPWTFGGGSKLEIKR | – | 40 | 79 | – |
| ML109-8B12 (antibody, V domains shown) VH: QVQLKESGPGLVAPSQSLSITCTISGFSLTSYGVHWVRQPPGKGLEWLVVIWSDGTTTYNSALKSRLSITRDNSKSQVFLKMNSLQTDDTAIYYCARDSTWDYYYTMDYWGQGTPVTVSS VL: DVVMTQTPLSLPVSLGDQASISCRSSQSLVHSNGNTYLHWYLQKPGQSPKLLIYKVSNRFSGVPDRFSGSGSGTDFTLKISRVEAEDLGVYFCSQSTHVYTFGGGTKLEIKR | – | – | – | 137 |
| ML109-7D7 (antibody, V domains shown) VH: QVQLQQSGAELVRPGTSVTLSCKASGYRFTDYEIHWIKQTPAQVLEWIGVTDPESGGTLHNPKFDGKATLTADKSSRTAYMELRSLTSEDSAVYYCTRYYKYESFYGMDYWGQGTSVTVSS VL: QIVLTQSPAIMSAFPGEKVTMTCSASSSISYMCWYQQKPGTSPKRWICDTSKLASGVPVRFSGSGSGTSYSLTINSMETEDAATYYCQQRSSYPWTFGGGTKVEIKR | – | – | – | 81 |
| ML109-5C5 (antibody, V domains shown) VH: QVQLQQSGAELVRPGASVKLSCKALGYTFTDYEFHWVKQTPVHGLEWIGVIHPGNGGTAYNQNFRDKATLTADKSSSTAYMELSSLTSEDSGVYYCTRFLTYEGYFDYWGQGTALTVSS VL: NIVMTQTPKFLLVSPGDRVTITCKASQSVSIDVGWFQQKPGQSPKLLIYHASNRYTGVPDRFTGSGYGTDFTFTVNTVQAEDLAVYFCQQDYSSPYTFGGGTKLELKR | – | – | – | 23 |
